Measured values published in patent publication US20230190881A1 (BIOTEST, published 2023).

Target: T1, human serum albumin (HSA) (human, UniProt P02768 25-609)
T1 construct: also called human albumin; Albiomin 20%
Assay: FVIII antigen ELISA on plasma samples; albumin binding inferred from reduced detection

Row | Binder | binding result
1 | AD2CD2_SC (other) ATRRYYLGAVELSWDYMQSDLGELPVDARFPPRVPKSFPFNTSVVYKKTLFVEFTDHLFNIAKPRPPWMGLLGPTIQAEVYDTVVITLKNMASHPVSLHAVGVSYWKASEGAEYDDQTSQREKEDDKVFPGGSHTYVWQVLKENGPMASDPLCLTYSYLSHVDLVKDLNSGLIGALLVCREGSLAKEKTQTLHKFILLFAVFDEGKSWHSETKNSLMQDRDAASARAWPKMHTVNGYVNRSLPGLIGCHRKSVYWHVIGMGTTPEVHSIFLEGHTFLVRNHRQASLEISPITFLTAQTLLMDLGQFLLFCHISSHQHDGMEAYVKVDSCPEEPQLRMKNNEEAEDYDDDLTDSEMDVVRFDDDNSPSFIQIRSVAKKHPKTWVHYIAAEEEDWDYAPLVLAPDDRSYKSQYLNNGPQRIGRKYKKVRFMAYTDETFKTREAIQHESGILGPLLYGEVGDTLLIIFKNQASRPYNIYPHGITDVRPLYSRRLPKGVKHLKDFPILPGEIFKYKWTVTVEDGPTKSDPRCLTRYYSSFVNMERDLASGLIGPLLICYKESVDQRGNQIMSDKRNVILFSVFDENRSWYLTENIQRFLPNPAGVQLEDPEFQASNIMHSINGYVFDSLQLSVCLHEVAYWYILSIGAQTDFLSVFFSGYTFKHKMVYEDTLTLFPFSGETVFMSMENPGLWILGCHNSDFRNRGMTALLKVSSCDKNTGDYYEDSYEDISAYLLSKNNAIEPRSFSQNPPVLSKNNAIEPRSFSQNSRHPSLAEAKEAANAELDSYGVSDFYKRLIDKAKTVEGVEALKDAILAALPGSGGSGGSGGSGSGSKNNAIEPRSFSQNSRHPSGSGGSGGSGGSGSLAEAKEAANAELDSYGVSDFYKRLIDKAKTVEGVEALKDAILAALPSKNNAIEPRSFSQNSRHPSQSDQEEIDYDDTISVEMKKEDFDIYDEDENQSPRSFQKKTRHYFIAAVERLWDYGMSSSPHVLRNRAQSGSVPQFKKVVFQEFTDGSFTQPLYRGELNEHLGLLGPYIRAEVEDNIMVTFRNQASRPYSFYSSLISYEEDQRQGAEPRKNFVKPNETKTYFWKVQHHMAPTKDEFDCKAWAYFSDVDLEKDVHSGLIGPLLVCHTNTLNPAHGRQVTVQEFALFFTIFDETKSWYFTENMERNCRAPCNIQMEDPTFKENYRFHAINGYIMDTLPGLVMAQDQRIRWYLLSMGSNENIHSIHFSGHVFTVRKKEEYKMALYNLYPGVFETVEMLPSKAGIWRVECLIGEHLHAGMSTLFLVYSNKCQTPLGMASGHIRDFQITASGQYGQWAPKLARLHYSGSINAWSTKEPFSWIKVDLLAPMIIHGIKTQGARQKFSSLYISQFIIMYSLDGKKWQTYRGNSTGTLMVFFGNVDSSGIKHNIFNPPIIARYIRLHPTHYSIRSTLRMELMGCDLNSCSMPLGMESKAISDAQITASSYFTNMFATWSPSKARLHLQGRSNAWRPQVNNPKEWLQVDFQKTMKVTGVTTQGVKSLLTSMYVKEFLISSSQDGHQWTLFFQNGKVKVFQGNQDSFTPVVNSLDPPLLTRYLRIHPQSWVHQIALRMEVLGCEAQDLYSKNNAIEPRSFSQNSRHPSLAEAKEAANAELDSYGVSDFYKRLIDKAKTVEGVEALKDAILAALPGSGGSGGSGGSGSGSKNNAIEPRSFSQNSRHPSGSGGSGGSGGSGSLAEAKEAANAELDSYGVSDFYKRLIDKAKTVEGVEALKDAILAALP | binds
2 | AD2CD2-19M_SC (other, also called de-immunized FVIII-ABD fusion molecule) ATRRYYLGAVELSWDYMQSDLGELPVDARFPPRVPKSFPFNTSVVYKKTLFVEFTDHLFSIAKPRPPWMGLLGPTIQAEVYDTVVITLKNMATHPVSLHAVGVSYWKASEGAEYDDQTSQREKEDDKVFPGGSHTYVWQVSKENGPMASDPQCLTYSYLSHVDLAKDLNSGLIGALLVCREGSLAKEKTQTLHKFILLFAVFDEGKSWHSETKDSLMQDRDAASARAWPKMHTVNGYVNRSLPGLTGCHRKSVYWHVIGMGTTPEVHSIFLEGHTFLVRDHRQASLEISPITFLTAQTLLMDLGQFLLFCHISSHQHDGMEAYVKVDSCPEEPQLRMKNNEEAEDYDDDLTDSEMDVVRFDDDNSPSFIQIRSVAKKHPKTWVHYIAAEEEDWDYAPLVLAPDDRSHKSQYLNNGPQRIGRKYKKVRFMAYTDETFKTREAIQHESGILGPLLYGEVGDTLLIIFKNQASRPYNIYPHGITDVRPLYERRLPKGVKHLKDFPILPGEIFKYKWTVTVEDGPTKSDPRCLTRYYSSHVNMERDLASGLIGPLLICYKESVDQRGNQIMSDKRNVILFSVFDENRSWYLTENIQRFLPEPAGVQLEDPEFQASNIMHSINGYVFDSLQLSVCLHEVAYWYILSIGAQTDFLSVFFSGYTFKHKMVYEDTLTLFPFSGETVFMSMENPGNWILGCHNSDFRNRGMTALLKVSSCDKNTGDYYEDSYEDISASLLSKNNAIEPRSFSQNPPVLSKNNAIEPRSFSQNSRHPSLAEAKEAANAELDSYGVSDFYKRLIDKAKTVEGVEALKDAILAALPGSGGSGGSGGSGSGSKNNAIEPRSFSQNSRHPSGSGGSGGSGGSGSLAEAKEAANAELDSYGVSDFYKRLIDKAKTVEGVEALKDAILAALPSKNNAIEPRSFSQNSRHPSQSDQEEIDYDDTISVEMKKEDFDIYDEDENQSPRSFQKKTRHYFIAAVERLWDYGMSSSPHVLRNRAQSGSVPQFKKVVFQEFTDGSFTQPLYRGELNEHLGLLGPYIRAEVEDNIMVTFRNQASRPYSFYSSLISYEEDQRQGAEPRKNFVKPNETKTYFWEVQHHMAPTKDEFDCKAWAYFSDVDLEKDVHSGLIGPLLVCHTNTLNPAHGRQVTVQEFALFFTIFDETKSWYFTENMERNCRAPCNIQMEDPTFKENYRFHAINGYIMDTLPGLVMAQDQRIRWYLLSMGSNENIHSIHFSGHVFTVRKKEEYKMALYNLYPGVFETVEMLPSKAGIWRVECLIGEHLHAGMSTLFLVYSDKCQTPLGMASGHIRDFQITASGQYGQWAPKLARLHYSGGINAWSTKEPFSWIKVDLLAPMIIHGIKTQGARQKFSSLYISQFIIMYSLDGKKWQTYRGNSTGTLMVFFGNVDSSGIKHNIFNPPIIARYIRLHPTHYSIRSTLRMELMGCDLNSCSMPLGMESKAISDAQITASSYFTNMFATWSPSKARLHLQGRSNAWRPQVNNPKEWLQVDFQKTMKVTGVTTQGVKSLLTSMYVKEFLISSSQDGHQWTLFFQNGKVKVFQGNQDSFTPVVNTLDPPLLTRYLRIHPQSWAHQIALRMEVLGCEAQDLYSKNNAIEPRSFSQNSRHPSLAEAKEAANAELDSYGVSDFYKRLIDKAKTVEGVEALKDAILAALPGSGGSGGSGGSGSGSKNNAIEPRSFSQNSRHPSGSGGSGGSGGSGSLAEAKEAANAELDSYGVSDFYKRLIDKAKTVEGVEALKDAILAALP | binds
